Common to all, as to assay: SPR, antibody captured, C2 as analyte;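 further: biacore SPR at 37 °C, anti-C2 mAbs captured via goat anti-human IgG on CM5 chips, double-referenced sensorgrams fit to a 1:1 kinetic or steady-state model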
Background: SPR reads the build-up and loss of mass on a sensor chip optically.

The target of one test is T1, human C2 L701A (human, UniProt P06681 21-752).
T1 sequence: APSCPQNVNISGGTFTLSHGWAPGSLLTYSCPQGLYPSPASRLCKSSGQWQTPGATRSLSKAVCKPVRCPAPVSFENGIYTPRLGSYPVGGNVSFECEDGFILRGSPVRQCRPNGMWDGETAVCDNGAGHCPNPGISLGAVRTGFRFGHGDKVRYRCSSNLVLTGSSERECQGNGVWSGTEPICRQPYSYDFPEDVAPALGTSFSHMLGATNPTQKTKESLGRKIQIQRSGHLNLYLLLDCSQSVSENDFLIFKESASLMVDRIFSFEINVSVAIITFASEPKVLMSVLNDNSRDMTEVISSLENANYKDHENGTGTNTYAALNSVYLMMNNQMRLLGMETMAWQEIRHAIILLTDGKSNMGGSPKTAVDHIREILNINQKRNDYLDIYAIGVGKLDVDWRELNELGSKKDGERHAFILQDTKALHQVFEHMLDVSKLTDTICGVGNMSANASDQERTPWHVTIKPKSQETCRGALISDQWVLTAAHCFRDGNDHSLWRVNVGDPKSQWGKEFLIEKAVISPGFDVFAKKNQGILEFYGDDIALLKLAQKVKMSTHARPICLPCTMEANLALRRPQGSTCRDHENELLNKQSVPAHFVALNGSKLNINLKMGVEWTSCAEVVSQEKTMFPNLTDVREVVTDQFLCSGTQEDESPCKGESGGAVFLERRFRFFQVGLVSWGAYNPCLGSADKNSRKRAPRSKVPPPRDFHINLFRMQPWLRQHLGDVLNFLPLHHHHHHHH

Another test deals with T2, human C2 D419A (human, UniProt P06681 21-752).
T2 sequence: T1 sequence with D399A, A681L

The target of the next test is T3, human C2 G466A (human, UniProt P06681 21-752).
T3 sequence: T1 sequence with G446A, A681L

Another test has as its target T4, human C2 T491A (human, UniProt P06681 21-752).
T4 sequence: T1 sequence with T471A, A681L

One molecule from US20220332804A1 (CSL INNOVATION, published 2022) can be followed below.

Changes are numbered by the printed parent chain.

B1: RF16-226 (antibody, human IgG4 S228P, lambda)
heavy: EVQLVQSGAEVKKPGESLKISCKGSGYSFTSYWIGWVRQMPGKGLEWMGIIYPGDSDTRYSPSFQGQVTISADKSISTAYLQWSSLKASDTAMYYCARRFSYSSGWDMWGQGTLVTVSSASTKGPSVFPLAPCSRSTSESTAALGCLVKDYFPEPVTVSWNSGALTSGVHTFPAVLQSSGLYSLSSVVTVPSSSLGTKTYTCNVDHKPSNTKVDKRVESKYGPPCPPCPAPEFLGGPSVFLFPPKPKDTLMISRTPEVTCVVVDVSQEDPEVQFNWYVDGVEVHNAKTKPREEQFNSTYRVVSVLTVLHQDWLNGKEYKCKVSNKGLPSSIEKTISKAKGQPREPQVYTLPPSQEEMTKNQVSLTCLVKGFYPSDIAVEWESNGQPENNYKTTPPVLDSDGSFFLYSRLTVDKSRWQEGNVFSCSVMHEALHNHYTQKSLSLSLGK
light: SYELTQPPSVSVSPGQTARITCSGDALTSKYVAWYQQKSGLAPLLVIYEDTRRPSGIPAKFSGSSSGSVATLTISGAHGDDEADYYCYSTDASGHQRVFGGGTKLTVLSQPKAAPSVTLFPPSSEELQANKATLVCLISDFYPGAVTVAWKADGSPVKAGVETTKPSKQSNNKYAASSYLSLTPEQWKSHRSYSCQVTHEGSTVEKTVAPTECS
notes: pH-dependent anti-C2 antibody from a phage display library; also called WT
Regarding B1, the Kd (as a rule, the concentration at which binding is half-saturated) in the test with human C2 L701A was 0.165 µM; with human C2 D419A, 0.0176 µM; with human C2 G466A, 0.0324 µM; with human C2 T491A, 0.0155 µM.
